# Experimental data from paper PMC8326396, “Label-free Electrochemical Impedance Spectroscopy Aptasensor for Ultrasensitive Detection of Lung Cancer Biomarker Carcinoembryonic Antigen”.
# Target: carcinoembryonic antigen (CEA) (UniProt P06731 35-685)
# Assay: electrochemical impedance spectroscopy; CEA 0.2-15.0 ng/ml linear range; LOD 0.085 ng/ml (not a Kd); CEA incubated on electrode 1 h at 37 C (70 min found optimal), wash with 0.01 M [Fe(CN)6] PBS pH 7.4; EIS in 5 mM [Fe(CN)6]3-/4-, 0.1 M PBS pH 7.0, KCl (0.1 M or 1 M, stated inconsistently)
# Details: protein: commercial
# Sequence of carcinoembryonic antigen (CEA) (P06731 35-685): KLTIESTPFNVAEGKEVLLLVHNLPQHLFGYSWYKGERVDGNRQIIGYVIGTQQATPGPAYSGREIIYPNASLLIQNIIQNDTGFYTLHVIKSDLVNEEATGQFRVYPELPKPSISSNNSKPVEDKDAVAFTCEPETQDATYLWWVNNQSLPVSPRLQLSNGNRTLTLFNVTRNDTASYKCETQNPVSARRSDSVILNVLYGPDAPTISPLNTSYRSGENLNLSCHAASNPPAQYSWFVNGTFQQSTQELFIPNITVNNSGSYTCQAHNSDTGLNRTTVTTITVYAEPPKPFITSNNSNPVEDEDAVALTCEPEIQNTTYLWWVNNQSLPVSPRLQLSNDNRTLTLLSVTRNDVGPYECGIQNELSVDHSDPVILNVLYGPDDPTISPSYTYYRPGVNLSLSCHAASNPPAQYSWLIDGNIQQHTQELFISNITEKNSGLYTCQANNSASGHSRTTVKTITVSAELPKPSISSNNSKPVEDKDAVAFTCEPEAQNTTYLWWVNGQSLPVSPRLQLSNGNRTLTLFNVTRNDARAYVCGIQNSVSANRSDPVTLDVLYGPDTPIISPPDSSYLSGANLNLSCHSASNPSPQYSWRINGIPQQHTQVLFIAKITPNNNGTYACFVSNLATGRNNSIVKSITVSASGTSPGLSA
binder,measurement,value
"ATACCAGCTTATTCAATT (ssDNA, 5'-SH (thiol)) [CEA aptamer (CEA-A)]",binding result,binds
